The target of assay [1] is T1, tumor necrosis factor alpha (TNFα) (human, UniProt P01375 77-233). The assay can be described thus: affinity by IC50 ELISA (so named in paragraph 380). In general terms: ELISA stands for enzyme-linked immunosorbent assay.
In assay [2] the target is T1, tumor necrosis factor alpha (TNFα). Description: affinity by IC50 ELISA (so named in paragraph 380). This is another data set of the same source.
The target is the same in assay [3]. The assay can be described thus: cell-based or functional assay.
Assay [4] shares this target. The assay can be described thus: affinity by IC50 ELISA (so named in paragraph 380). This is another data set of the same source.
The target is the same in assay [5]. The assay can be described thus: affinity by IC50 ELISA (so named in paragraph 380). The source holds these as a separate data set.
Assay [6] shares this target. The assay can be described thus: affinity by IC50 ELISA (so named in paragraph 380). The source holds these as a separate data set.
The target is the same in assay [7]. The assay can be described thus: affinity by IC50 ELISA (so named in paragraph 380). This is another data set of the same source.
Assay [8] shares this target. The assay can be described thus: affinity by IC50 ELISA (so named in paragraph 380). The source holds these as a separate data set.

Where “and” joins values, the source holds several entries; their conditions need not be identical. Equal entries are not always repeated. Where two headings read alike, the source gives them in different places.

T1 sequence (P01375 77-233 limits assumed): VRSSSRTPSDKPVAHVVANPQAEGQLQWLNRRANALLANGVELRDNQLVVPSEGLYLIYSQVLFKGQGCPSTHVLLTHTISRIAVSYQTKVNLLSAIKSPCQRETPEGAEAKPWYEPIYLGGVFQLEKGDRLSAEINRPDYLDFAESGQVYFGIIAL

B1: MAb 812 (antibody, V domains shown)
VH: EVQLLESGGGLIQPGGSLRLSCAASGFTVSSNYMSWVRQAPGKGLEWVSVIYSGGRTYYADSVKGRFTISRDSSKNTLYLQMNSLRAEDTAVYYCARNYYGSTYDYWGQGTLVTVSS
VL: EIVLTQSPVTLSVPPGERASLSCRASQNIYTAVAWYQQKPGQAPRLLIYGASTRATGIPARFSGGGSGTDYTLTISSLESEDFAVYHCQQYFSWPLTFGGGTKLEIK
notes: IgG1/kappa, CHO; also called H1192/L308
Consider B1, for which the Affinity in assay [1] and in assay [2] was 0.32 nM throughout.

B2: MAb 1896 (antibody, V domains shown)
VH: EVQLVESGGGLIQPGGSLRLSCAVSGLNVSRDYMSWVRQAPGKGLEWISVIYRGGATMYADSVKGRFTISRDTSKNTVFLQMSRLKVADTAVYYCARNYYGSTLDYWGQGTLVTVSS
VL: EIVLTQSPVTLSVPPGERASLSCRASQNIYTAVAWYQQKPGQAPRLLIYNASTRATGIPARFSGGGSGTDYTLTISSLESEDFAVYHCQQWHSWPLTFGGGTKLEIK
notes: IgG1/kappa, CHO; also called H1685/L459
With B2, the “IC50, TNFα cytotoxicity assay (WEHI-13VAR cells)” value (“IC50, TNFα cytotoxicity assay” for short) in assay [3] is 0.79 nM and 0.9 nM. In addition, the Affinity in assay [2], in assay [4] and in assay [5] was 0.08 nM each time.

B3: MAb 1780 (antibody, V domains shown)
VH: EVQLVESGGGLIQPGGSLRLSCAVSGLNVSRDYMSWVRQAPGKGLEWISVIYRGGATMYADSVKGRFTISRDTSKNTVFLQMSRLKVADTAVYYCARNYYGSTLDYWGQGTLVTVSS
VL: EIVLTQSPVTLSVPPGERASLSCRASQNIYTAVAWYQQKPGQAPRLLIYGASTRATGIPARFSGGGSGTDYTLTISSLESEDFAVYHCQQWHSWPLTFGGGTKLEIK
notes: IgG1/kappa, CHO; also called H1685/L332
Turning to B3, in assay [3], the “IC50, TNFα cytotoxicity assay” value is 1.6 nM and 3.18 nM. Further, the Affinity in assay [2], in assay [6] and in assay [5] was 0.23 nM in each case.

B4: MAb 1852 (antibody, V domains shown)
VH: EVQLLESGGGLIQPGGSLRLSCAASGFTVGNNYMSWVRQAPGKGLEWVSVIYSAGSTYYADSVKGRFIISRDNSKDTVYLQMNSLRVDDTAVYYCARNYYGSTLDYWGQGTLVTVSS
VL: EIVLTQSPVTLSVPPGERASLSCRASQNIYTAVAWYQQKPGQAPRLLIYGASTRATGIPARFSGGGSGTDYTLTISSLESEDFAVYHCQQWHSWPLTFGGGTKLEIK
notes: IgG1/kappa, CHO; also called H1729/L332
B4: the Affinity in assay [2] and in assay [7] was 0.41 nM throughout.

B5: MAb 2060 (antibody, V domains shown)
VH: EVQLVESGGGLIQPGGSLRLSCAVSGLNVSRDYMSWVRQAPGKGLEWISVIYRGGVTMYADSVKGRFTISRDTSKNTVFLQMSRLKVADTAVYYCARNYYGSTLDYWGQGTLVTVSS
VL: EIVLTQSPATLSVSPGERASLSCRASQNIYTAVAWYQQKPGQAPRLLIYNASTRATGIPARFSGGGSGTDYTLTISSLESEDFAVYHCQQWHSWPLTFGGGTKLEIK
notes: IgG1/kappa, CHO; also called H1844/L471
B5: the Affinity in assay [8] and in assay [2] was 0.02 nM each time. Further, in assay [3], the “IC50, TNFα cytotoxicity assay” value was found to be 0.14 nM.

B6: MAb 1895 (antibody, V domains shown)
VH: EVQLVESGGGLIQPGGSLRLSCAVSGLNVSRDYMSWVRQAPGKGLEWISVIYRGGATMYADSVKGRFTISRDTSKNTVFLQMSRLKVADTAVYYCARNYYGSTHDYWGQGTLVTVSS
VL: EIVLTQSPVTLSVPPGERASLSCRASQNIYTAVAWYQQKPGQAPRLLIYNASTRATGIPARFSGGGSGTDYTLTISSLESEDFAVYHCQQWHSWPLTFGGGTKLEIK
notes: IgG1/kappa, CHO; also called H1596/L459
For B6, the “IC50, TNFα cytotoxicity assay” value in assay [3] is 0.89 nM. Besides, the Affinity in assay [2] and in assay [5] was 0.09 nM each time.

B7: MAb 1851 (antibody, V domains shown)
VH: EVQLLESGGGLIQPGGSLRLSCAASGFTVGNNYMSWVRQAPGKGLEWVSVIYSAGSTYYADSVKGRFIISRDNSKDTVYLQMNSLRVDDTAVYYCARNYYGSTFDYWGQGTLVTVSS
VL: EIVLTQSPVTLSVPPGERASLSCRASQNIYTAVAWYQQKPGQAPRLLIYGASTRATGIPARFSGGGSGTDYTLTISSLESEDFAVYHCQQWHSWPLTFGGGTKLEIK
notes: IgG1/kappa, CHO; also called H1728/L332
With B7, the Affinity in assay [2] and in assay [7] was 0.26 nM throughout.

B8: MAb 1850 (antibody, V domains shown)
VH: EVQLLESGGGLIQPGGSLRLSCAASGFTVGNNYMSWVRQAPGKGLEWVSVIYSAGSTYYADSVKGRFIISRDNSKDTVYLQMNSLRVDDTAVYYCARNYYGSTHDYWGQGTLVTVSS
VL: EIVLTQSPVTLSVPPGERASLSCRASQNIYTAVAWYQQKPGQAPRLLIYGASTRATGIPARFSGGGSGTDYTLTISSLESEDFAVYHCQQWHSWPLTFGGGTKLEIK
notes: IgG1/kappa, CHO; also called H1727/L332
On to B8, for which the Affinity in assay [2] and in assay [7] was 0.59 nM each time.

B9: MAb 815 (antibody, V domains shown)
VH: EVQLLESGGGLIQPGGSLRLSCAASGFTVSSNYMSWVRQAPGKGLEWVSVIYSGGRTYYADSVKGRFTISRDSSKNTLYLQMNSLRAEDTAVYYCARNYYGSTYDYWGQGTLVTVSS
VL: EIVLTQSPVTLSVPPGERASLSCRASQNIYTAVAWYQQKPGQAPRLLIYGASTRATGIPARFSGGGSGTDYTLTISSLESEDFAVYHCQQYHAWPLTFGGGTKLEIK
notes: IgG1/kappa, CHO; also called H1192/L311
B9: the Affinity in assay [1] and in assay [2] was 0.36 nM throughout.

B10: MAb 855 (antibody, V domains shown)
VH: EVQLLESGGGLIQPGGSLRLSCAASGFTVSSNYMSWVRQAPGKGLEWVSVIYSGGRTYYADSVKGRFTISRDSSKNTLYLQMNSLRAEDTAVYYCARNYYGSTYDYWGQGTLVTVSS
VL: EIVLTQSPVTLSVPPGERASLSCRASQNIYTAVAWYQQKPGQAPRLLIYGASTRATGIPARFSGGGSGTDYTLTISSLESEDFAVYHCQQWHSWPLTFGGGTKLEIK
notes: IgG1/kappa, CHO; also called H1192/L332
Turning to B10, in assay [3], the “IC50, TNFα cytotoxicity assay” value is 3.5 nM. In addition, the Affinity in assay [1] and in assay [2] was 0.25 nM each time.

B11: MAb 1874 (antibody, V domains shown)
VH: EVQLLESGGGLIQPGGSLRLSCAASGFTVGNNYMSWVRQAPGKGLEWVSVIYSAGSTYYADSVKGRFIISRDNSKDTVYLQMNSLRVDDTAVYYCARNYYGSTMDYWGQGTLVTVSS
VL: EIVLTQSPVTLSVPPGERASLSCRASQNIYTAVAWYQQKPGQAPRLLIYGASTRATGIPARFSGGGSGTDYTLTISSLESEDFAVYHCQQWHSWPLTFGGGTKLEIK
notes: IgG1/kappa, CHO; also called H1725/L332
Consider B11, for which the Affinity in assay [2] and in assay [7] was 0.38 nM each time.

B12: MAb 1371 (antibody, V domains shown)
VH: EVQLVESGGGLIQPGGSLRLSCAVSGLNVSRDYMSWVRQAPGKGLEWISVIYRGGATMYADSVKGRFTISRDTSKNTVFLQMSRLKVADTAVYYCARNYYGSTHDYWGQGTLVTVSS
VL: EIVLTQSPVTLSVPPGERASLSCRASQNIYTAVAWYQQKPGQAPRLLIYGASTRATGIPARFSGGGSGTDYTLTISSLESEDFAVYHCQQWHSWPLTFGGGTKLEIK
notes: IgG1/kappa, CHO; also called H1596/L332
In the case of B12, in assay [3], the “IC50, TNFα cytotoxicity assay” value is 2 nM and 3.08 nM. In addition, the Affinity in assay [2], in assay [6] and in assay [5] was 0.2 nM throughout.

B13: MAb 813 (antibody, V domains shown)
VH: EVQLLESGGGLIQPGGSLRLSCAASGFTVSSNYMSWVRQAPGKGLEWVSVIYSGGRTYYADSVKGRFTISRDSSKNTLYLQMNSLRAEDTAVYYCARNYYGSTYDYWGQGTLVTVSS
VL: EIVLTQSPVTLSVPPGERASLSCRASQNIYTAVAWYQQKPGQAPRLLIYGASTRATGIPARFSGGGSGTDYTLTISSLESEDFAVYHCQQYMSWPLTFGGGTKLEIK
notes: IgG1/kappa, CHO; also called H1192/L309
Regarding B13, the Affinity in assay [1] and in assay [2] was 0.42 nM throughout.

(Values after US20080267974A1 (SCHERING, published 2008).)
